Experimental data reported in patent US20150315275A1 (AstraZeneca / MedImmune, published 2015).

What was measured:
[1] = target: T1, B7-H4 fusion protein Variant 2: IgV residues 29-154 of SEQ ID NO:1 (human, UniProt Q7Z7D3 29-154); test: ELISA, B7-H4 Fc fusion protein immobilized at 1 µg/ml, mouse antibody titrated, anti-mouse Ig HRP
T1 construct: Human IgG1 Fc fusion protein; also called IgV only; not shown: human IgG1 Fc
T1 chain: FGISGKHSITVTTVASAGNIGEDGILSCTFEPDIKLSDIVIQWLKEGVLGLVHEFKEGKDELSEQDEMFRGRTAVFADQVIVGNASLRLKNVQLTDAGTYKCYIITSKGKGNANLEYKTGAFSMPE
Protocol: (§1) 100 μl 1 μg/ml human IgG1 Fc fusion proteins diluted in PBS consisting of different segments of B7-H4 Extracellular domains were immobilized on flat bottom 96 well plates (Costar 9017) overnight at 4° C. […] Plates were washed twice with PBS+0.1% PS-20 and blocked with 200 μl/well PBS 10% FBS at RT for 1 hr. A titration of mouse anti-human B7-H4 antibodies 2H9, 2D1, 2E11, 6H3, 8E11 or H74 diluted in PBS 10% FBS were added to the plates and incubated at RT for 1 hr. Plates were washed three times and 100 μl 1 μg/ml anti-mouse Ig HRP (Sigma) was added to each well and incubated at RT for 1 hr. Plates were washed six times and 100 μl TMB substrate (SurModics) was added to each well for 5-15 mins. 100 μl stop solution (0.1M Sulfuric acid) was added to each well. Plates were read at Absorbance 450 nm by PerkinElmer EnVision 2104 Multilabel Reader.

[2] = target: T2, B7-H4 fusion protein Variant 3: IgV residues 29-158 of SEQ ID NO:1 (human, UniProt Q7Z7D3 29-158); test: as above
T2 construct: Human IgG1 Fc fusion protein; also called IgV only; not shown: human IgG1 Fc
T2 chain: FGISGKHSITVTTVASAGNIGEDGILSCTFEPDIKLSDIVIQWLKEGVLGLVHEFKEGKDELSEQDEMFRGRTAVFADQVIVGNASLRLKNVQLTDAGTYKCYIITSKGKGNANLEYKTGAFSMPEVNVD
Protocol: as §1

[3] = target: T3, B7-H4 fusion protein Variant 1: IgV residues 29-149 of SEQ ID NO:1 (human, UniProt Q7Z7D3 29-149); test: as above
T3 construct: Human IgG1 Fc fusion protein; also called IgV only; not shown: human IgG1 Fc
T3 chain: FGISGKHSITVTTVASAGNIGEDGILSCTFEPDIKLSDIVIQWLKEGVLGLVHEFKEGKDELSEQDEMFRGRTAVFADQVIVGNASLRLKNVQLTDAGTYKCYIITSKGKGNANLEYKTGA
Protocol: as §1

[4] = target: T4, B7-H4 fusion protein Variant 5: IgC residues 154-259 of SEQ ID NO:1 (human, UniProt Q7Z7D3 154-259); test: as above
T4 construct: Human IgG1 Fc fusion protein; also called IgC only; not shown: human IgG1 Fc
T4 sequence: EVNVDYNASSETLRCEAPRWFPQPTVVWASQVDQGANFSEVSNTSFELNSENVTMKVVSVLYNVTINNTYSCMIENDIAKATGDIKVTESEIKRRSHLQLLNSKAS
Protocol: as §1

B7-H4-Ig fusion protein [5] = target: T5, B7-H4-Ig fusion protein (human); test: antibody captured on B7-H4-Ig fusion protein, detected with biotin-anti-mouse IgG1 and Europium-Streptavidin
T5 construct: also called human B7-H4 Ig
Excerpt: Serum was collected for initial evaluation of PK (peak and trough post 4th dose). Antibody was captured from serum with a B7-H4-Ig fusion protein, and detected with biotin-anti-mouse IgG1 (6H3.mIgG1) or IgG2a (6H3.mIgG2a) and detected with Europium-Streptavidin.

[6] = target: T6, human B7-H4 expressed on cells (human, UniProt Q7Z7D3 25-282); test: flow cytometry on HEK293 cells expressing full length human B7-H4, labelled secondary antibody, 20 min at 4 C
T6 construct: the cell line is named under assay or readout; also called full length human B7-H4 on HEK293 cells; 293T.hB7-H4
T6 sequence: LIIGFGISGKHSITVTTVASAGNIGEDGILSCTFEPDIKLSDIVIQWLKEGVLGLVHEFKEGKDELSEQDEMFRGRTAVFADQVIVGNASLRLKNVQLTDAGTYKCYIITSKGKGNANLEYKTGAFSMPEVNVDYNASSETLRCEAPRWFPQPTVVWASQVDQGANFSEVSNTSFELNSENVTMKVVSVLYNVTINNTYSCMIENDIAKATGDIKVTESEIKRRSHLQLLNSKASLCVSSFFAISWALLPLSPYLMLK
Protocol: In order to determine the kinetics of binding of antibody 6H3 binding to B7-H4, with HEK293 cells that expressed full length human B7-H4 were incubated (for 20 minutes at 4° C. with 1×10⁵ in 200 μl wells) in the presence of varying concentrations of antibody (0, 0.01 ng, 0.03 ng, 0.1 ng, 0.3 ng, 1 ng, 10 ng, 30 ng, 100 ng, 300 ng, 1000 ng, 3000 ng, 10000 ng, or 30000 ng) in RPMI complete media (10% FBS). Binding was analyzed (FACS Canto II) using a FACS staining plate after incubation with a secondary antibody (anti-human Ig PE, anti-mouse Ig APC, anti-hamster Ig PE or anti-rat Ig PE).

B7-H4-Ig fusion protein [7] = target: T5, B7-H4-Ig fusion protein; test: ELISA, B7-H4 Ig coated on the plate, purified antibody, HRP goat anti-mouse
Protocol: B7-H4 Ig was coated onto microtiter plates, washed, blocked, and washed again. Varying concentrations of anti-B7-H4 antibodies were allowed to bind. Purified proteins were used for clones H74, 6H3, and 8E11. Conditioned media from hybridomas 2D1, 2H9, and 2E11 were used. Following incubation, the plates were washed. Bound anti-B7-H4 was detected using HRP-conjugated goat anti-mouse (Jackson ImmunoResearch).

T5 sequence (chain, as listed by the source limits assumed): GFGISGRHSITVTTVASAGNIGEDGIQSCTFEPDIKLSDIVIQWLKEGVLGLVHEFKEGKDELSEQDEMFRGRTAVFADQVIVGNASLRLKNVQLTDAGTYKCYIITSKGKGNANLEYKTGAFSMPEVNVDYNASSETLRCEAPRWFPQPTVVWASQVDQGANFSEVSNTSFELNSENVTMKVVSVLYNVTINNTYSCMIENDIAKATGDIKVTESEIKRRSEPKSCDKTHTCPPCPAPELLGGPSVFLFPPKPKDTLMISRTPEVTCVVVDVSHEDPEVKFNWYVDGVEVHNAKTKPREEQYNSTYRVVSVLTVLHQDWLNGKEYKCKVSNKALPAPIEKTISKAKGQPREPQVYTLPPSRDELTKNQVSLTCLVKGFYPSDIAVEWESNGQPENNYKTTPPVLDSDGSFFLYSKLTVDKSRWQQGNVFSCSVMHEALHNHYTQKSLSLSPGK

Row | Binder | binding result [1] | binding result [2] | binding result [3] | binding result [4] | EC50 (read off the curve) (B7-H4-Ig fusion protein [5]) | EC50 (read off the curve) [6] | EC50 (read off the curve) (B7-H4-Ig fusion protein [7])
1 | anti-human B7-H4 antibody 2H9 (antibody, V domains shown, Mouse anti-human B7-H4 antibody; also called clone 2H9) VH: EVQLVESGGNLVKPGGSLKLSCAASGFTFSNSAMSWVRQTPEKRLEWVATISDGGRYTYYPDNVKGRFTISRDNAKNNLYLQMSHLKSEDTALYYCARDRPHWYFDVWGTGATVTVSS VL: DIVLTQSPASLAVSLGQRATISCRASESIDNYGISFMHWYQQKPGQPPKLLIYRASNLESGIPARFSGSGSRTDFTLTINPVETDDVATYFCQQSDEGRTFGGGTKLEIK | binds | binds | binds |  |  |  | 
2 | anti-human B7-H4 antibody 2D1 (antibody, V domains shown, Mouse anti-human B7-H4 antibody; also called clone 2D1) VH: EVQLVESGGGLVKPGGSLKLSCAASGFTFNSHGMSWVRQTPEKRLDWVATISDGGTYTYYPVNVKGRFTISRDNAKNNLYLQMSHLKSEDTAMYYCARDGGGGAYWGQGTLVTVSA VL: DVVMTQTPLSLPVSLGDQASISCRSSHSLVHSNGNTYLHWYLQKPGQSPNLLIYIVSNRFSGVPDRFSGSGSGTDFTLKISRVEAEDLGVYFCSQSTHVPPTFGAGTKLELK |  |  |  | binds |  |  | 
3 | mouse 6H3.m1 (mouse IgG1) (antibody, V domains shown, 6H3 as mouse IgG1; also called 6H3.mIgG1) VH: EVQLQQSGPVLVKPGTSVKMSCKASGYTFTDYYMNWVKQSHGKSLEWIGVINPYNGDTTYNQKFKGKATLTVDKSSSTAYMEVNSLTFEDSAVYYCARYPESTYWGQGTLVTVSA VL: DVVMTQTPLSLPVSLGDQASISCRSSQSLVHINGNTYLHWYLQKPGQSPKVLIYKVSNRFSGVPDRFSGSGSGTDFTLKISRVEAEDLGVYFCSQSTHVPLTFGAGTKLELK |  |  |  |  | ~10 ng/mL |  | 
4 | murine anti-human B7-H4 antibody 6H3 (antibody, V domains shown, Mouse monoclonal antibody; also called clone 6H3; mouse anti-human B7-H4 6H3) VH: EVQLQQSGPVLVKPGTSVKMSCKASGYTFTDYYMNWVKQSHGKSLEWIGVINPYNGDTTYNQKFKGKATLTVDKSSSTAYMEVNSLTFEDSAVYYCARYPESTYWGQGTLVTVSA VL: DVVMTQTPLSLPVSLGDQASISCRSSQSLVHINGNTYLHWYLQKPGQSPKVLIYKVSNRFSGVPDRFSGSGSGTDFTLKISRVEAEDLGVYFCSQSTHVPLTFGAGTKLELK | no binding (tested: 16 ng/ml) | no binding (tested: 16 ng/ml) | no binding (tested: 16 ng/ml) |  |  | ~6 nM | ~10 ng/mL
